From patent US20250215083A1 (JIANGSU HENGRUI PHARMACEUTICALS, published 2025)

What was measured:
cynomolgus monkey GPRC5D = biological target: T1, cynomolgus monkey GPRC5D (cynomolgus monkey); assay: FACS, CHOK1-cynoGPRC5D cells
T1 construct: whole, on cells; also called CynoGPRC5D; cynoGPRC5D
Method: (§1) To test the capacity of the GPRC5D/CD3 bispecific antibodies of the present disclosure to bind to GPRC5D, a flow cytometry assay was used in this test example to measure the capacity of the GPRC5D/CD3 bispecific antibodies to bind to the human multiple myeloma cell line MM.1R (ATCC® CRL-2975), which expresses GPRC5D, and to a stably transfected cell strain CHOK1-cynoGPRC5D, which expresses cynomolgus monkey GPRC5D. The specific procedure was as follows: The cells described above were cultured in complete culture medium containing 10% FBS, incubated in a 37° C., 5% CO₂ incubator for 2 days, and added to a cell plate at 1×10⁵ cells/well. The plate was centrifuged at 300 g for 5 min and washed once with 1% BSA. The antibodies were serially diluted to 8 concentrations and added to the cell plate at 100 μL/well. The plate was incubated at 4° C. for 1 h and washed once with 1% BSA. […] The plate was washed three times with 1% BSA, PBS was added at 100 μL/well, and plate reading was performed.

human GPRC5D = biological target: T2, human GPRC5D (human, UniProt Q9NZD1 1-345); assay: FACS, MM.1R cells
T2 construct: whole, on cells; also called membrane surface GPRC5D
T2 sequence (Q9NZD1 whole entry): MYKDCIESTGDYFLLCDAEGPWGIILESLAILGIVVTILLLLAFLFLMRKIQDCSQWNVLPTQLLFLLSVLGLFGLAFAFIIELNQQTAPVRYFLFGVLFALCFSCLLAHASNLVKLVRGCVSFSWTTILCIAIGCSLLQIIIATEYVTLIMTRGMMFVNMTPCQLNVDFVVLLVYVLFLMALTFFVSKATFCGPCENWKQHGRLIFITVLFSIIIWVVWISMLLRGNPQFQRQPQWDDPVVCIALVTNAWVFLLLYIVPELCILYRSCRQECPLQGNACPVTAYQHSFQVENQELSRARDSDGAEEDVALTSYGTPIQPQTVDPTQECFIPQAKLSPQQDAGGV
Method: as §1

| Binder | EC50 (cynomolgus monkey GPRC5D) | Max (cynomolgus monkey GPRC5D) | EC50 (human GPRC5D) | Max (human GPRC5D) |
| --- | --- | --- | --- | --- |
| Chi-30 (antibody, human IgG1, kappa, L234A L235A, V domains shown) VH: EVQLQQSGPELVKPGGSMKISCKASGYSFTGYTMNWVKQSHGKNPEWIGLINPYNGGTRNNQKFKDKATLTVDKSSSTAYMELLSLTSEDSAVYYCTRWGLRLAMDYWGQGTSVTVSS VL: DIVMTQSQKFMSTSVGDRVSVTCKASQNVGSNVAWYQQKPGQSPKALIYSASYRYSGVPDRFTGSGSGTDFTLTISNVQSEDLAEYFCHQYNSYPPTFGAGTKLALKR | 1.57 nM | 7940 | 0.46 nM | 2100 |
| F11-17 (bispecific antibody, formula 11 with Chi-1 variable regions) heavy: not shown light: DVVMTQTPLSLSVSLGDQASISCRSSQSLVHSNGNTYLYWYLQKPGQSPKLLIYKVSNRFSGVPDRFSGSGSGTDFTLKISRVEAEDLGVYFCSQSTHVPPLTFGAGTKLELKRTVAAPSVFIFPPSDEQLKSGTASVVCLLNNFYPREAKVQWKVDNALQSGNSQESVTEQDSKDSTYSLSSTLTLSKADYEKHKVYACEVTHQGLSSPVTKSFNRGEC | 0.35 nM | 0.98 | 0.31 nM | 1.82 |
| Chi-24 (antibody, human IgG1, kappa, L234A L235A, V domains shown) VH: QVQLQQSDAELVKPGGSVKISCKVSGYTFTDYPIHWMKQRPEQGLEWMGYVFPRDGSTKYNEKFRVKATWTADKSSSTVYMQLNSLTSDDSAVYFCSRELTAYWGQGTTLRVSS VL: not shown | 3.96 nM | 9630 | 2.81 nM | 5000 |
| JNJ-64407564 (bispecific antibody, human IgG4 S228P, kappa, lambda, F234A L235A, anti-GPRC5D arm and anti-CD3E arm; also called positive control molecule) heavy 1: not shown light 1: DIQMTQSPSSLSASVGDRVTITCKASQNVATHVGWYQQKPGKAPKRLIYSASYRYSGVPSRFSGSGSGTEFTLTISNLQPEDFATYYCQQYNRYPYTFGQGTKLEIKRTVAAPSVFIFPPSDEQLKSGTASVVCLLNNFYPREAKVQWKVDNALQSGNSQESVTEQDSKDSTYSLSSTLTLSKADYEKHKVYACEVTHQGLSSPVTKSFNRGEC heavy 2: EVQLVESGGGLVQPGGSLRLSCAASGFTFNTYAMNWVRQAPGKGLEWVARIRSKYNNYATYYAASVKGRFTISRDDSKNSLYLQMNSLKTEDTAVYYCARHGNFGNSYVSWFAYWGQGTLVTVSSASTKGPSVFPLAPCSRSTSESTAALGCLVKDYFPEPVTVSWNSGALTSGVHTFPAVLQSSGLYSLSSVVTVPSSSLGTKTYTCNVDHKPSNTKVDKRVESKYGPPCPPCPAPEAAGGPSVFLFPPKPKDTLMISRTPEVTCVVVDVSQEDPEVQFNWYVDGVEVHNAKTKPREEQFNSTYRVVSVLTVLHQDWLNGKEYKCKVSNKGLPSSIEKTISKAKGQPREPQVYTLPPSQEEMTKNQVSLTCLVKGFYPSDIAVEWESNGQPENNYKTTPPVLDSDGSFLLYSKLTVDKSRWQEGNVFSCSVMHEALHNHYTQKSLSLSLGK light 2: QTVVTQEPSLTVSPGGTVTLTCRSSTGAVTTSNYANWVQQKPGQAPRGLIGGTNKRAPGTPARFSGSLLGGKAALTLSGVQPEDEAEYYCALWYSNLWVFGGGTKLTVLGQPKAAPSVTLFPPSSEELQANKATLVCLISDFYPGAVTVAWKADSSPVKAGVETTTPSKQSNNKYAASSYLSLTPEQWKSHRSYSCQVTHEGSTVEKTVAPTECS | 0.06 nM | 0.26 |  |  |
| F11-19 (bispecific antibody, formula 11 with Chi-30 variable regions) heavy: not shown light: DIVMTQSQKFMSTSVGDRVSVTCKASQNVGSNVAWYQQKPGQSPKALIYSASYRYSGVPDRFTGSGSGTDFTLTISNVQSEDLAEYFCHQYNSYPPTFGAGTKLALKRTVAAPSVFIFPPSDEQLKSGTASVVCLLNNFYPREAKVQWKVDNALQSGNSQESVTEQDSKDSTYSLSSTLTLSKADYEKHKVYACEVTHQGLSSPVTKSFNRGEC | 2.71 nM | 9790 | 1.32 nM | 1140 |
| Chi-45 (antibody, human IgG1, kappa, L234A L235A, V domains shown) VH: EVKLVESGGGLVQPGDFLSLSCAASGFTFTDYYLSWVRQPPGKALEWLAFIRNRAKGYTTEYSASVKGRFTISRDNSQSILYLQMNVLRAEDSATYYCARMGGKGWHFDVWGTGTTVTVSS VL: DVLMTQSPLSLPVSLGDQASISCRSSQSIVHSNGNTYLEWYLQKPGQSPKLLIYKVSNRFSGVPDRFFGSGSGTDFTLKINRVEAEDLGVYYCFQGSHVPFTFGGGTKLEIKR | 1.91 nM | 14600 | 1.64 nM | 1250 |
| F11-18 (bispecific antibody, formula 11 with Chi-24 variable regions) heavy: not shown light: DVVLTQTPLTLSVTIGQPASISCKSSQSLLHSNGKTYLNWLLQRPGQSPRRLIYLVSKLDSGVPDRFAGSGSGTDFTLKITRVEAEDLGVYYCAQGTHFPRTFGGGSKLEIRRTVAAPSVFIFPPSDEQLKSGTASVVCLLNNFYPREAKVQWKVDNALQSGNSQESVTEQDSKDSTYSLSSTLTLSKADYEKHKVYACEVTHQGLSSPVTKSFNRGEC |  |  | 1.57 nM | 1300 |
| Chi-1 (antibody, human IgG1, kappa, L234A L235A, V domains shown) VH: EVQLVESGGGLVKPGGSLKLSCAASGFTFSDYGMHWVRQAPEKGLEWVAFISSGSSTIYYADTVKGRFTISRDNAKNTLFLQMTSLRSEDTAIYYCTRLGPNWYFDVWGTGTTVTVSS VL: DVVMTQTPLSLSVSLGDQASISCRSSQSLVHSNGNTYLYWYLQKPGQSPKLLIYKVSNRFSGVPDRFSGSGSGTDFTLKISRVEAEDLGVYFCSQSTHVPPLTFGAGTKLELKR | 1.2 nM | 7880 | 1.43 nM | 5210 |
| F4-1 (bispecific antibody, formula 4) heavy 1: not shown light 1: not shown heavy 2: EVQLVESGGGLVQPGGSLRLSCAASGFTFTDYYLSWVRQAPGKGLEWVAFIRNRAKGYTTEYSASVKGRFTISRDNAKNSLYLQMNSLRAEDTAVYYCARMGGKGWHFDVWGQGTTVTVSSASTKGPSVFPLAPSSKSTSGGTAALGCLVKDYFPEPVTVSWNSGALTSGVHTFPAVLQSSGLYSLSSVVTVPSSSLGTQTYICNVNHKPSNTKVDKKVEPKSCDKTHTCPPCPAPEAAGGPSVFLFPPKPKDTLMISRTPEVTCVVVDVSHEDPEVKFNWYVDGVEVHNAKTKPREEQYNSTYRVVSVLTVLHQDWLNGKEYKCKVSNKALPAPIEKTISKAKGQPREPQVCTLPPSRDELTKNQVSLSCAVKGFYPSDIAVEWESNGQPENNYKTTPPVLDSDGSFFLVSKLTVDKSRWQQGNVFSCSVMHEALHNHYTQKSLSLSPGK light 2: DVVMTQSPLSLPVTPGEPASISCRSSQSIVHSNRNTYLEWYLQKPGQSPKLLIYKVSNRFSGVPDRFFGSGSGTDFTLKINRVEAEDVGVYYCFQGSHVPFTFGGGTKVEIKRTVAAPSVFIFPPSDEQLKSGTASVVCLLNNFYPREAKVQWKVDNALQSGNSQESVTEQDSKDSTYSLSSTLTLSKADYEKHKVYACEVTHQGLSSPVTKSFNRGEC | 3.28 nM | 76600 | 16.9 nM | 13800 |
| F4-2 (bispecific antibody, formula 4) heavy 1: not shown light 1: not shown heavy 2: EVQLVESGGGLVQPGGSLRLSCAASGFTFTDYYLSWVRQAPGKGLEWVAFIRNRAKGYTTEYSASVKGRFTISRDNSKNSLYLQMNSLRAEDTAVYYCARMGGKGWHFDVWGQGTTVTVSSASTKGPSVFPLAPSSKSTSGGTAALGCLVKDYFPEPVTVSWNSGALTSGVHTFPAVLQSSGLYSLSSVVTVPSSSLGTQTYICNVNHKPSNTKVDKKVEPKSCDKTHTCPPCPAPEAAGGPSVFLFPPKPKDTLMISRTPEVTCVVVDVSHEDPEVKFNWYVDGVEVHNAKTKPREEQYNSTYRVVSVLTVLHQDWLNGKEYKCKVSNKALPAPIEKTISKAKGQPREPQVCTLPPSRDELTKNQVSLSCAVKGFYPSDIAVEWESNGQPENNYKTTPPVLDSDGSFFLVSKLTVDKSRWQQGNVFSCSVMHEALHNHYTQKSLSLSPGK light 2: DVVMTQSPLSLPVTPGEPASISCRSSQSIVHSNRNTYLEWYLQKPGQSPKLLIYKVSNRFSGVPDRFFGSGSGTDFTLKINRVEAEDVGVYYCFQGSHVPFTFGGGTKVEIKRTVAAPSVFIFPPSDEQLKSGTASVVCLLNNFYPREAKVQWKVDNALQSGNSQESVTEQDSKDSTYSLSSTLTLSKADYEKHKVYACEVTHQGLSSPVTKSFNRGEC | 3.45 nM | 75200 | 15.8 nM | 13700 |
| F4-3 (bispecific antibody, formula 4) heavy 1: not shown light 1: not shown heavy 2: EVQLVESGGGLVQPGGSLRLSCAASGFTFTDYYLSWVRQAPGKGLEWVAFIRNRAKGYTTEYSASVKGRFTISRDNAQNSLYLQMNSLRAEDTAVYYCARMGGKGWHFDVWGQGTTVTVSSASTKGPSVFPLAPSSKSTSGGTAALGCLVKDYFPEPVTVSWNSGALTSGVHTFPAVLQSSGLYSLSSVVTVPSSSLGTQTYICNVNHKPSNTKVDKKVEPKSCDKTHTCPPCPAPEAAGGPSVFLFPPKPKDTLMISRTPEVTCVVVDVSHEDPEVKFNWYVDGVEVHNAKTKPREEQYNSTYRVVSVLTVLHQDWLNGKEYKCKVSNKALPAPIEKTISKAKGQPREPQVCTLPPSRDELTKNQVSLSCAVKGFYPSDIAVEWESNGQPENNYKTTPPVLDSDGSFFLVSKLTVDKSRWQQGNVFSCSVMHEALHNHYTQKSLSLSPGK light 2: DVVMTQSPLSLPVTPGEPASISCRSSQSIVHSNRNTYLEWYLQKPGQSPKLLIYKVSNRFSGVPDRFFGSGSGTDFTLKINRVEAEDVGVYYCFQGSHVPFTFGGGTKVEIKRTVAAPSVFIFPPSDEQLKSGTASVVCLLNNFYPREAKVQWKVDNALQSGNSQESVTEQDSKDSTYSLSSTLTLSKADYEKHKVYACEVTHQGLSSPVTKSFNRGEC | 3.83 nM | 76100 | 16.1 nM | 13800 |
